# Assay results from paper PMC5646241, “Copper Chaperone CupA and Zinc Control CopY Regulation of the Pneumococcal cop Operon”.
# B1: pSP_0727 cop promoter, FAM (dsDNA)
# DNA 1: TCTATAATTGACAAATGTAGATTTTAAGAGTATACTGATGAGTGTAATTGACAAATG
# DNA 2: CATTTGTCAATTACACTCATCAGTATACTCTTAAAATCTACATTTGTCAATTATAGA
# B2: pSP_1541 promoter, FAM (dsDNA)
# DNA 1: GCGAACCTCACTTACCCCTTGCAAAGTCTTGGGGTCATTAGA
# DNA 2: TCTAATGACCCCAAGACTTTGCAAGGGGTAAGTGAGGTTCGC
# B3: pSP_1541 promoter, biotinylated (dsDNA)
# DNA 1: B2 DNA 1
# DNA 2: B2 DNA 2
# Tests used:
# [1] = target: CopY, repressor of the Streptococcus pneumoniae cop operon (Streptococcus pneumoniae TIGR4); assay: SEC-MALS; WTC-010S5 column, 50 mM Tris-HCl pH 7.5, 100 mM NaCl, 5% glycerol, with 100 µM zinc, 25°C
# [2] = target: CopY, repressor of the Streptococcus pneumoniae cop operon (Streptococcus pneumoniae TIGR4); assay: SEC-MALS; WTC-010S5 column, 50 mM Tris-HCl pH 7.5, 100 mM NaCl, 5% glycerol, without zinc (apo CopY), 25°C
# CopY, zinc-bound = CopY, zinc-bound (Streptococcus pneumoniae TIGR4, UniProt A0ACD7PQP7 1-131); assay: fluorescence polarization; 10 uM Zn2+; FP: 50 mM Tris-HCl pH 7.5, 100 mM NaCl, 5% glycerol, Chelex-treated, 10 nM DNA, temperature not stated; EMSA: TBS, 20 ul, 4 C, 50 uM CopY, 50 ng DNA, 6% TBE gel, 0.5x TB running buffer without EDTA; conditions: protein: recombinant; tags: pMCSG7 vector construct (tag not given); chain copies: 4; label: FAM on strand 1; blunt
# [3] = target: T1, CopY (copper-responsive cop operon repressor) (Streptococcus pneumoniae TIGR4, UniProt A0ACD7PQP7 1-131); assay: fluorescence polarization; apo, no metal; FP: 50 mM Tris-HCl pH 7.5, 100 mM NaCl, 5% glycerol, Chelex-treated, 10 nM DNA, temperature not stated; EMSA: TBS, 20 ul, 4 C, 50 uM CopY, 50 ng DNA, 6% TBE gel, 0.5x TB running buffer without EDTA; conditions: protein: recombinant; tags: pMCSG7 vector construct (tag not given); chain copies: 2; label: FAM on strand 1; blunt
# [4] = target: T1, CopY (copper-responsive cop operon …); assay: fluorescence polarization; apo; described as nonspecific binding, linear; FP: 50 mM Tris-HCl pH 7.5, 100 mM NaCl, 5% glycerol, Chelex-treated, 10 nM DNA, temperature not stated; EMSA: TBS, 20 ul, 4 C, 50 uM CopY, 50 ng DNA, 6% TBE gel, 0.5x TB running buffer without EDTA; conditions: protein: recombinant; tags: pMCSG7 vector construct (tag not given); chain copies: 2; label: FAM on strand 1; blunt
# [5] = target: T1, CopY (copper-responsive cop operon …); assay: EMSA; no metal; 50 uM CopY; FP: 50 mM Tris-HCl pH 7.5, 100 mM NaCl, 5% glycerol, Chelex-treated, 10 nM DNA, temperature not stated; EMSA: TBS, 20 ul, 4 C, 50 uM CopY, 50 ng DNA, 6% TBE gel, 0.5x TB running buffer without EDTA; conditions: protein: recombinant; tags: pMCSG7 vector construct (tag not given); chain copies: 2; label: 3' biotin on strand 1; blunt
molecule,measurement,setting,value
"CopY, repressor of the Streptococcus pneumoniae cop operon (natural protein)",stoichiometry N,[1],4
same,stoichiometry N,[2],2
B1,Kd,"CopY, zinc-bound",520 ± 130 nM
same,Kd,[3],4240 ± 780 nM
B2,binding result,[4],no binding
B3,binding result,[5],no binding
